Data published in patent publication US9500651B2, “Method for identifying novel minor histocompatibility antigens” (UNIVERSITÉ DE MONTRÉAL, priority 2012, dated 2016).

Target: HLA-B*0801 (Homo sapiens, UniProt P01889, A93T/A95T/D138N/E176V/E187T/K202T/Q94N/R180D/S35A/V36M/Y33D/Y91F)
Assay: MHC class I-associated peptides eluted from B-LCLs by mild acid treatment and identified by LC-MS/MS with personalized database
Assay type: cell-based
Details: EBV-transformed B-LCLs of 2 HLA-identical siblings
Protocol: (§1) Peripheral blood mononuclear cells (PBMCs) were isolated from blood samples of 2 HLA-identical siblings. Epstein-Barr virus (EBV)-transformed B lymphoblastoid cell lines (B-LCLs) were derived from PBMCs with Ficoll-Paque™ Plus (Amersham) as described (Tosato and Cohen, 2007). Established B-LCLs were maintained in RPMI 1640 medium supplemented with 10% fetal bovine serum, 25 mM of HEPES, 2 mM L-glutamine and penicillin-streptomycin (all from Invitrogen).
(§2) Three biological replicates of 4×10^8 exponentially growing B-LCLs were prepared from each subject. MHC class I-associated peptides were released by mild acid treatment, pretreated by desalting with an HLB cartridge, filtered with a 3000 Da cut-off column and separated by cation exchange chromatography (SCX) using an off-line 1100 series binary LC system (Agilent Technologies) as previously described (Fortier et al., 2008). Peptides were loaded at 8 uL/min on a homemade strong cation exchange (SCX) column (0.3 mm internal diameter×50 mm length) packed with SCX bulk material (Polysulfoethyl A™, PolyLC). Peptides were separated into five fractions using a linear gradient of 0-25% B in 25 min (solvent A: 5 mM ammonium formate, 15% acetonitrile, ACN, pH 3.0; solvent B: 2 M ammonium formate, 15% ACN, pH 3.0) and brought to dryness using a Speedvac.
(§3) MHC class I-associated peptide fractions were resuspended in 2% aqueous ACN (0.2% formic acid) and analyzed by LC-MS/MS using an Eksigent™ LC system coupled to a LTQ-Orbitrap™ mass spectrometer (Thermo Electron) (Fortier et al., 2008; de Verteuil et al., 2010; Caron et al., 2011). Peptides were separated in a custom C18 reversed phase column (150 μm i.d.×100 mm, Jupiter Proteo™ 4 μm, Phenomenex) at a flow rate of 600 nL/min using a linear gradient of 3-60% aqueous ACN (0.2% formic acid) in 69 mins. Full mass spectra were acquired with the Orbitrap™ analyzer operated at a resolving power of 60 000 (at m/z 400) and collision-activated dissociation tandem mass spectra were acquired in data-dependent mode with the linear ion trap analyzer. Mass calibration used an internal lock mass (protonated (Si(CH3)2O))6; m/z 445.120029) and mass accuracy of peptide measurements was within 5 ppm.
(§4) Mass spectra were analyzed using Xcalibur™ software and peak lists were generated using Mascot™ distiller version 2.1.1 (Matrix Science, http://www.matrixscience.com). Database searches were performed against a non-redundant human Uniprot database (containing 110,361 sequences, released on 28, Jul. 2011) (version 101 of the UniProt Gene Ontology Annotation available from the European Bioinformatics Institute (EBI), an academic research institute located on the Wellcome Trust Genome Campus in Hinxton near Cambridge (UK), part of the European Molecular Biology Laboratory; http://www.ebi.ac.uk/Informationt; Magrane et al., Database Vol. 2011, Article ID bar009; The UniProt Consortium, Nucleic Acids Res. 2011 January; 39(Database issue): D214-D219) and databases specific for each individual (see “in silico translated transcriptome” section) using Mascot (version 2.3, Matrix Science). A Mascot search against a concatenated target/decoy database consisting of combined forward and reverse versions of the Ensembl human reference genome database and of each subject-specific database. Non-redundant peptide sequences with a cutoff score threshold above 15 were selected. The tolerances for precursor and fragment mass values were set to 0.02 and 0.05 Dalton, respectively. Searches were performed without enzyme specificity and a variable modification for oxidation (Met) and deamidation (Asn, Gln). Raw data files were converted to peptide maps comprising m/z values, charge state, retention time and intensity for all detected ions above a threshold of 8000 counts using in-house software (Proteoprofile) (Fortier et al., 2008; de Verteuil et al., 2010; Caron et al., 2011). […]

Presentation at the cell surface by MHC class I allele, presented at the cell surface:
ELQEKFLSL (listed as Homo sapiens) [MiHA peptide from CENPF, rs3795517, leucine allele]
ELQEKFSSL (listed as Homo sapiens) [MiHA peptide from CENPF, rs3795517, serine allele]
SLFFRKVAF (listed as Homo sapiens) [MiHA peptide from MTCH2, rs1064608, alanine allele]
SLFFRKVPF (listed as Homo sapiens) [MiHA peptide from MTCH2, rs1064608, proline allele]

Target: T1, HLA-A*0301 (Homo sapiens, UniProt P04439)
T1 construct: endogenous in cells; host or cells: EBV-transformed B lymphoblastoid cell lines (B-LCLs) from PBMCs of 2 HLA-identical siblings
Assay: as above
Assay type: cell-based
Details: EBV-transformed B-LCLs of 2 HLA-identical siblings
Protocol: as §1, §2, §3, §4

Presentation at the cell surface by MHC class I allele, presented at the cell surface:
AMYDKGPFRSK (listed as Homo sapiens) [MiHA peptide from NQO1, rs1131341, arginine allele]
AMYDKGPFWSK (listed as Homo sapiens) [MiHA peptide from NQO1, rs1131341, tryptophan allele]
RVSLPTSPG (listed as Homo sapiens) [MiHA peptide from KIAA0226L, rs1408184, glycine allele]
RVSLPTSPR (listed as Homo sapiens) [MiHA peptide from KIAA0226L, rs1408184, arginine allele]
SVLKPGNSK (listed as Homo sapiens) [MiHA peptide from ELF1, rs1056820, serine allele]
TVLKPGNSK (listed as Homo sapiens) [MiHA peptide from ELF1, rs1056820, threonine allele]
VMGNPGTFK (listed as Homo sapiens) [MiHA peptide from RMDN1, rs6980476, lysine allele]
VMGNPGTFN (listed as Homo sapiens) [MiHA peptide from RMDN1, rs6980476, asparagine allele]

Target: HLA-B*4403 (Homo sapiens, UniProt P01889, A223V/A65T/A93T/A95T/D201E/D98Y/E176V/E187L/E204Q/E69K/G107R/H137Y/K202T/L105A/L119I/N104T/N87E/Q56L/Q94N/R106L/R155S/R180L/S101N/S121R/S35A/S48T/T118I/V36M/W191S/Y140D/Y91S)
Assay: as above
Assay type: cell-based
Details: EBV-transformed B-LCLs of 2 HLA-identical siblings
Protocol: as §1, §2, §3, §4

Presentation at the cell surface by MHC class I allele, presented at the cell surface:
QELDGVFQKL (listed as Homo sapiens) [MiHA peptide from ZWINT, rs2241666, glycine allele]
QELDRVFQKL (listed as Homo sapiens) [MiHA peptide from ZWINT, rs2241666, arginine allele]
